In patent US20140308285A1 (Amgen, published 2014):

Experiments:
[1] = target: T1, folate receptor 1 (FOLR1) on tumor cell lines (Cal-51, T47D) (human, UniProt P15328 25-234); assay: cell-based or functional assay
[2] = target: T1, folate receptor 1 (FOLR1) on tumor cell …; assay: cell-based or functional assay; remark: listed apart in the source
[3] = target: T2, human CD3 (CD3 epsilon chain) on human T cells (human, UniProt P07766 22-207); assay: FACS on isolated human T cells, FITC anti-human light chain secondary antibody
T2 construct: The assay used isolated human T cells, which carry CD3 as part of the TCR-CD3 complex; also called CD3ε
T2 sequence (P07766 22-207 limits assumed): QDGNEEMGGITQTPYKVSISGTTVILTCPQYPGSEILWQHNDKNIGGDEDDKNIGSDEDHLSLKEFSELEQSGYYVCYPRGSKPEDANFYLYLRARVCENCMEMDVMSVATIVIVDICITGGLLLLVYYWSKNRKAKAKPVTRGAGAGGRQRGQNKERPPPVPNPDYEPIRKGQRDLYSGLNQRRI
Experimental: The heterodimeric bispecific antibodies described in Example 1 were produced in HEK 293 cells and were assayed by fluorescence activated cell sorting (FACS) for binding to T cells, which express CD3, and to a human ovarian cancer cell line, Ovcar-8, which expresses mesothelin. Briefly, the heterodimeric bispecific antibodies were incubated with about 50,000 Ovcar-8 cells or isolated human or cynomolgus monkey T cells at 4° C. for one hour. The cells were then washed and stained with a fluorescein isothiocyanate (FITC)-conjugated anti-human light chain secondary antibody and analyzed by flow cytometry. The relative binding was represented by the geometric mean of fluorescence intensity.

T1 sequence (P15328 25-234, stated change not applied): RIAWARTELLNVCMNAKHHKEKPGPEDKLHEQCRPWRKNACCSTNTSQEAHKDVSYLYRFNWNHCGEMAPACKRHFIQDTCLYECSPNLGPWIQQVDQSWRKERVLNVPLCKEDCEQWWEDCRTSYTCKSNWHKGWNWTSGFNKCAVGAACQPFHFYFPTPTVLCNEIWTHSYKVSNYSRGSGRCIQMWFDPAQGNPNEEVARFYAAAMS

B1: P136795.3 (bispecific antibody)
chain 1: EVQLVESGGGLVQPGGSLKLSCAASGFTFNSYAMNWVRQAPGKGLEWVARIRSKYNNYATYYADSVKGRFTISRDDSKNTAYLQMNNLKTEDTAVYYCVRHGNFGNSYVSWWAYWGQGTLVTVSSGGGGSGGGGSQSVLTQPPSVSEAPRQRVTISCSGSSSNIGNNAVNWYQQLPGKAPKLLIYYDDMLSSGVSDRFSGSKSGTSASLAISGLQSEDEADYYCAAWDDSLNGVVFGGGTKLTVLASTKGPSVFPLAPCSRSTSESTAALGCLVKDYFPEPVTVSWNSGALTSGVHTFPAVLQSSGLYSLSSVVTVPSSNFGTQTYTCNVDHKPSNTKVDKTVGGGGSAAAEPKSSDKTHTCPPCPAPEAAGGPSVFLFPPKPKDTLMISRTPEVTCVVVDVSHEDPEVKFNWYVDGVEVHNAKTKPREEQYNSTYRVVSVLTVLHQDWLNGKEYKCKVSNKALPAPIEKTISKAKGQPREPQVYTLPPSREEMTKNQVSLTCLVKGFYPSDIAVEWESNGQPENNYDTTPPVLDSDGSFFLYSDLTVDKSRWQQGNVFSCSVMHEALHNHYTQKSLSLSPGK
chain 2: not shown
EC50 of specific lysis, Cal-51 cells (printed Cal-61) with human T cells [1]: 1.21 pM | EC50 of specific lysis, T47D cells with human T cells [1]: 1.26 pM | EC50 (pM) for cytokine release, IFN-γ, in presence of T47D cells [2]: 27.1 pM | EC50 (pM) for cytokine release, IL-2, in presence of T47D cells [2]: 20.3 pM | EC50 (pM) for cytokine release, IL-10, in presence of T47D cells [2]: 28.3 pM | EC50 (pM) for cytokine release, IL-13, in presence of T47D cells [2]: 27.8 pM | EC50 (pM) for cytokine release, TNF-α, in presence of T47D cells [2]: 12.5 pM

B2: H71362.2 (bispecific antibody)
chain 1: EVQLVESGGGLVKPGVSLRLSCAASGFTFSRYGMNWVRQAPGKGLEWVSSISSSGTYIKYADSVKGRFTISRDNAKNSLNLQMNSLRAEDTAVYYCARDRDRYPLDYWGQGTLVTVSSASTKGPQVQLQESGPGLVKPSETLSLTCTVSGGSIISHYWSWIRQPPGKGLEWIGYIYYSGSTNYNPSLKSRVTISVDTSKNQFSLKLTSVTAADTAVYYCARDGWSAFDYWGQGTLVTVSSASTKGPSVFPLAPCSRSTSESTAALGCLVKDYFPEPVTVSWNSGALTSGVHTFPAVLQSSGLYSLSSVVTVPSSNFGTQTYTCNVDHKPSNTKVDKTVGGGGSAAAVPRDLEVVAATPTSLLISWDAIGLYPYYYRITYGETGGNSPVQEFTVPGSKSTATISGLKPGVDYTITVYAVSGIFGWNNSKPISINYRTGSSDYKDDDDKGSSHHHHHH
chain 2: SYELTQPPSVSVSPGQTARITCSGDALPKKYAYWYQQKSGQAPVLVIYEATKRPSGIPERFSGSSSGTMATLTLSGAQVEDEADYYCYSTDSTNYHWVFGGGTKLTVLGTVAAPDIQMTQSPSSLSASVGDRVTITCRASQGIRNALGWYQQKPGKAPKRLIYAASSLQSGVPSRFSGSGSGTEFTLTISSLQPEDFATYYCLQHNSYPRTFGQGTKVEIRRTVAAPSVFIFPPSDEQLKSGTASVVCLLNNFYPREAKVQWKVDNALQSGNSQESVTEQDSKDSTYSLSSTLTLSKADYEKHKVYACEVTHQGLSSPVTKSFNRGEC
FACS binding (geometric mean) [3]: 354

B3: P69059.3 (bispecific antibody)
chain 1: SYELTQPPSVSVSPGQTARITCSGDALPKKYAYWYQQKSGQAPVLVIYEATKRPSGIPERFSGSSSGTMATLTLSGAQVEDEADYYCYSTDSTNYHWVFGGGTKLTVLGGGGGSGGGGSQVQLQESGPGLVKPSQTLSLTCTVSGGSINNNNYYWTWIRQHPGKGLEWIGYIYYSGSTFYNPSLKSRVTISVDTSKTQFSLKLSSVTAADTAVYYCAREDTMTGLDVWGQGTTVTVSSASTKGPSVFPLAPCSRSTSESTAALGCLVKDYFPEPVTVSWNSGALTSGVHTFPAVLQSSGLYSLSSVVTVPSSNFGTQTYTCNVDHKPSNTKVDKTVGGGGSAAAVPRDLEVVAATPTSLLISWDAPHHGVAYYRITYGETGGNSPVQEFTVPGSKSTATISGLKPGVDYTINVYAVLAYPRGYPLSKPISINYRTDYKDDDDKGSSHHHHHH
chain 2: DIQMTQSPSSLSASVGDRVTITCRASQSINNYLNWYQQKPGKAPTLLIYAASSLQSGVPSRFSGSRSGTDFTLTISSLQPEDFAAYFCQQTYSNPTFGQGTKVEVKGGGGSGGGGSEVQLVESGGGLVKPGVSLRLSCAASGFTFSRYSMNWVRQAPGKGLEWVSSISSSGTYIKYADSVKGRFTISRDNAKNSLNLQMNSLRAEDTAVYYCARDRDRYPLDYWGQGTLVTVSSRTVAAPSVFIFPPSDEQLKSGTASVVCLLNNFYPREAKVQWKVDNALQSGNSQESVTEQDSKDSTYSLSSTLTLSKADYEKHKVYACEVTHQGLSSPVTKSFNRGEC
FACS binding (geometric mean) [3]: 179
